Measurements taken from PMC8818652, “Msi2‐mediated MiR7a‐1 processing repression promotes myogenesis”.

Experiments:
[1] = molecular target: HuR (ELAV-like protein 1) (UniProt P70372 1-326); experiment: EMSA; HuR alone; 100 mM Tris-HCl pH 7.5, 7.5 mM KCl, 25 mM MgCl2, 375 mM NaCl, 12.5% glycerol, 5 mM DTT, 30 C 30 min (as printed, possibly 5x buffer); 6% native PAGE at 4 C; settings: protein: recombinant
Chain of HuR (ELAV-like protein 1) (P70372 whole entry): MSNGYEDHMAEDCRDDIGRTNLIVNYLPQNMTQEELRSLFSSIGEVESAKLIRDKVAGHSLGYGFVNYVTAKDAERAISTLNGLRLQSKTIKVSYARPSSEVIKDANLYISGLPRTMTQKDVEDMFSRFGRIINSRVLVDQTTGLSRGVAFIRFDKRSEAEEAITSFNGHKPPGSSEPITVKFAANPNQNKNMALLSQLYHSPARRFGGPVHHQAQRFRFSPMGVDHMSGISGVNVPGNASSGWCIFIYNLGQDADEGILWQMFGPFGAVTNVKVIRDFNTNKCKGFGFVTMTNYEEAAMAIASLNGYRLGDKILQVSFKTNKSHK

[2] = molecular target: HuR (ELAV-like protein 1);Msi2 (Musashi 2) (mouse?;mouse?, UniProt P70372;Q920Q6 1-326;1-346, |); experiment: EMSA; HuR and Msi2 together, strong cooperative binding; 100 mM Tris-HCl pH 7.5, 7.5 mM KCl, 25 mM MgCl2, 375 mM NaCl, 12.5% glycerol, 5 mM DTT, 30 C 30 min (as printed, possibly 5x buffer); 6% native PAGE at 4 C; settings: protein: recombinant;recombinant; tags:

Chain of HuR (ELAV-like protein 1);Msi2 (Musashi 2) (P70372 whole entry, chain 1 of 2): as the sequence (P70372 whole entry) above
Chain of HuR (ELAV-like protein 1);Msi2 (Musashi 2) (Q920Q6 whole entry, chain 2 of 2): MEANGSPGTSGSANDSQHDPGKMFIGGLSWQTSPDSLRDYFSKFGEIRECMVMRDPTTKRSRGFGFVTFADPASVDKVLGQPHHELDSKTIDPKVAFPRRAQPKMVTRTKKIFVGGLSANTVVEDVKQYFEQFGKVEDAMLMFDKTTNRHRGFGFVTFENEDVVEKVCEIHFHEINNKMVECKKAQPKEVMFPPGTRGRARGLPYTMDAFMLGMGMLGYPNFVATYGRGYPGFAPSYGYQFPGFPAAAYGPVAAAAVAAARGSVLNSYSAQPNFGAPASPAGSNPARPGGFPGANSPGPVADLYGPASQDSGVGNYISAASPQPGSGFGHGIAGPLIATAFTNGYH

Binder: UAAUUCGUACUUUUUUUUUCUUUUCUUUUAUAGUGUGAA (ssRNA) [WT Flanking probe]
- binding result [1]: binds
- binding result [2]: binds
